Data as given in patent publication US20200297818A1 (ZEALAND PHARMA A S, published 2020).
*1 amine or outer side, *2 acyl side, *3 side chain or, on linkers, in order; H or OH if unused. Side-chain parts run from the residue outwards. [ ]: non-standard residue; d: D form. The star is where a group is joined. C20 diacid = O=C(O)CCCCCCCCCCCCCCCCCCC(=O)*; C18 diacid = O=C(O)CCCCCCCCCCCCCCCCC(=O)*; γGlu = O=C(O)[C@H](CCC(=O)[*:2])N[*:1]; AEEA = NCCOCCOCC(=O)O; Aib = CC(C)(N)C(=O)O

T1: human GLP-2 receptor (hGLP2-R) (human, UniProt O95838 1-553)
T1 sequence (looked up): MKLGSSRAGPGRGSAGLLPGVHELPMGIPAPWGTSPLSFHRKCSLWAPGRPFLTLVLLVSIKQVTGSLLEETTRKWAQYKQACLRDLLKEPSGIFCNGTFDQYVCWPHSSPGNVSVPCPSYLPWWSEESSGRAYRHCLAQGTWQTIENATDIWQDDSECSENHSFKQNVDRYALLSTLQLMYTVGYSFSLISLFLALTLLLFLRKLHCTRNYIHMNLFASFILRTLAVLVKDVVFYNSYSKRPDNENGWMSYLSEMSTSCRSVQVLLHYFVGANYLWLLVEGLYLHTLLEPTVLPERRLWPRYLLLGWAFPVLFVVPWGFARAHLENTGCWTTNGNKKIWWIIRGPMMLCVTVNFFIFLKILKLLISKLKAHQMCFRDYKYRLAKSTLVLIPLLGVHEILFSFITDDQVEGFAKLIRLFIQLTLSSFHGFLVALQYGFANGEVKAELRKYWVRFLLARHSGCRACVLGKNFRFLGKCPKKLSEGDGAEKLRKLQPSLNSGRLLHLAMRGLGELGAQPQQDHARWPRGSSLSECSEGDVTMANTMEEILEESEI


Columns and labels:
[1] = molecular target: human glucagon-like peptide 1 receptor (GLP-1 R) (human, UniProt P43220 24-463); experiment: cell-based or functional assay
[2] = molecular target: T1, human GLP-2 receptor (hGLP2-R); experiment: cell-based or functional assay

EC50 GLP-1 (nM); cAMP response [1]	EC50 GLP-2 (nM); cAMP response [2]	Binder
0.097 nM	0.074 nM	H-H[Aib]EGSFTSELATILDK([AEEA-AEEA-Lys-Glu-Lys-γGlu-C20 diacid])QAARDFIAWLIEHKITD-OH [Compound 60]
0.034 nM	0.99 nM	H-H[Aib]EGTFTSEK([AEEA-Lys-Glu-Lys-γGlu-C20 diacid])ATILDEQAARDFIAWLIEHKITD-OH [Compound 54]
0.44 nM	0.048 nM	H-H[Aib]EGTFSSELATILDK([AEEA-Lys-Glu-Lys-γGlu-C18 diacid])QAARDFIAWLIQHKITD-OH [Compound 47]
0.076 nM	0.24 nM	H-H[Aib]EGSFTSEK([AEEA-Lys-Glu-Lys-γGlu-C20 diacid])ATILDEQAARDFIAWLIEHKITD-OH [Compound 53]
0.47 nM	0.054 nM	H-H[Aib]EGTFSSELATILDK([AEEA-Lys-Glu-Lys-γGlu-C20 diacid])QAARDFIAWLIQHKITD-OH [Compound 48]
0.31 nM	0.056 nM	H-H[Aib]EGTFSSELATILDK([AEEA-Lys-Glu-Lys-γGlu-C20 diacid])QAARDFIAWLIEHKITD-OH [Compound 50]
0.093 nM	0.083 nM	H-H[Aib]EGSFTSELATILDK([AEEA-Lys-Glu-Lys-γGlu-C20 diacid])QAARDFIAWLIEHKITD-OH [Compound 57]
0.63 nM	0.35 nM	HXEGTFSSELATILDXEAARDFIAWLIEHKITD (HELM PEPTIDE1{H.[Aib].E.G.T.F.S.S.E.L.A.T.I.L.D.K.E.A.A.R.D.F.I.A.W.L.I.E.H.K.I.T.D}|PEPTIDE2{[O=C(O)CCCCCCCCCCCCCCCCC(=O)[*:2]].[gGlu]}$PEPTIDE1,PEPTIDE2,16:R3-2:R2$$$V2.0; SMILES CC[C@H](C)[C@H](NC(=O)[C@H](Cc1ccccc1)NC(=O)[C@H](CC(=O)O)NC(=O)[C@H](CCCNC(=N)N)NC(=O)[C@H](C)NC(=O)[C@H](C)NC(=O)[C@H](CCC(=O)O)NC(=O)[C@H](CCCCNC(=O)CC[C@H](NC(=O)CCCCCCCCCCCCCCCCC(=O)O)C(=O)O)NC(=O)[C@H](CC(=O)O)NC(=O)[C@H](CC(C)C)NC(=O)[C@@H](NC(=O)[C@@H](NC(=O)[C@H](C)NC(=O)[C@H](CC(C)C)NC(=O)[C@H](CCC(=O)O)NC(=O)[C@H](CO)NC(=O)[C@H](CO)NC(=O)[C@H](Cc1ccccc1)NC(=O)[C@@H](NC(=O)CNC(=O)[C@H](CCC(=O)O)NC(=O)C(C)(C)NC(=O)[C@@H](N)Cc1c[nH]cn1)[C@@H](C)O)[C@@H](C)O)[C@@H](C)CC)C(=O)N[C@@H](C)C(=O)N[C@@H](Cc1c[nH]c2ccccc12)C(=O)N[C@@H](CC(C)C)C(=O)N[C@H](C(=O)N[C@@H](CCC(=O)O)C(=O)N[C@@H](Cc1c[nH]cn1)C(=O)N[C@@H](CCCCN)C(=O)N[C@H](C(=O)N[C@H](C(=O)N[C@@H](CC(=O)O)C(=O)O)[C@@H](C)O)[C@@H](C)CC)[C@@H](C)CC) [Compound 1]
0.13 nM	0.25 nM	HXEGSFTSELATILDXEAARDFIAWLIEHKITD (HELM PEPTIDE1{H.[Aib].E.G.S.F.T.S.E.L.A.T.I.L.D.K.E.A.A.R.D.F.I.A.W.L.I.E.H.K.I.T.D}|PEPTIDE2{[O=C(O)CCCCCCCCCCCCCCCCC(=O)[*:2]].[gGlu]}$PEPTIDE1,PEPTIDE2,16:R3-2:R2$$$V2.0; SMILES CC[C@H](C)[C@H](NC(=O)[C@H](Cc1ccccc1)NC(=O)[C@H](CC(=O)O)NC(=O)[C@H](CCCNC(=N)N)NC(=O)[C@H](C)NC(=O)[C@H](C)NC(=O)[C@H](CCC(=O)O)NC(=O)[C@H](CCCCNC(=O)CC[C@H](NC(=O)CCCCCCCCCCCCCCCCC(=O)O)C(=O)O)NC(=O)[C@H](CC(=O)O)NC(=O)[C@H](CC(C)C)NC(=O)[C@@H](NC(=O)[C@@H](NC(=O)[C@H](C)NC(=O)[C@H](CC(C)C)NC(=O)[C@H](CCC(=O)O)NC(=O)[C@H](CO)NC(=O)[C@@H](NC(=O)[C@H](Cc1ccccc1)NC(=O)[C@H](CO)NC(=O)CNC(=O)[C@H](CCC(=O)O)NC(=O)C(C)(C)NC(=O)[C@@H](N)Cc1c[nH]cn1)[C@@H](C)O)[C@@H](C)O)[C@@H](C)CC)C(=O)N[C@@H](C)C(=O)N[C@@H](Cc1c[nH]c2ccccc12)C(=O)N[C@@H](CC(C)C)C(=O)N[C@H](C(=O)N[C@@H](CCC(=O)O)C(=O)N[C@@H](Cc1c[nH]cn1)C(=O)N[C@@H](CCCCN)C(=O)N[C@H](C(=O)N[C@H](C(=O)N[C@@H](CC(=O)O)C(=O)O)[C@@H](C)O)[C@@H](C)CC)[C@@H](C)CC) [Compound 2]
0.088 nM	0.11 nM	H-H[Aib]EGSFTSELATILDK([AEEA-Lys-Glu-Lys-γGlu-C20 diacid])KAARDFIAWLIEHKITD-OH [Compound 59]
0.27 nM	0.044 nM	H-H[Aib]EGTFSSELATILDK([AEEA-Lys-Glu-Lys-γGlu-C18 diacid])QAARDFIAWLIEHKITD-OH [Compound 49]
0.02 nM	0.075 nM	H-H[Aib]EGTFTSELATILDK([AEEA-Lys-Glu-Lys-γGlu-C20 diacid])QAARDFIAWLIQHKITD-OH [Compound 52]
39 nM		HGDGSFSDEMNTILDNLAARDFINWLIQTKITD [Teduglutide]
0.089 nM	0.09 nM	H-H[Aib]EGSFTSELATILDK([AEEA-Lys-Glu-Lys-γGlu-C20 diacid])QAARDFIAWLIAHKITD-OH [Compound 58]
0.033 nM	0.076 nM	H-H[Aib]EGTFTSELATILDK([AEEA-Lys-Glu-Lys-γGlu-C20 diacid])QAARDFIAWLIEHKITD-OH [Compound 56]
0.02 nM	0.18 nM	H-H[Aib]EGTFTSELATILDK([Lys-Glu-Lys-γGlu-C20 diacid])QAARDFIAWLIQHKITD-OH [Compound 51]
0.11 nM	0.78 nM	H-H[Aib]EGSFTSEK([AEEA-AEEA-Lys-Glu-Lys-γGlu-C20 diacid])ATILDEQAARDFIAWLIEHKITD-OH [Compound 55]
